What all share (experiment): peptide SPOT array, c-Myc-tagged receptor at 1 uM or 100 nM, anti-c-Myc-Cy3
One experiment has as its target T1, Mcl-1, Q07820.
T1 chain: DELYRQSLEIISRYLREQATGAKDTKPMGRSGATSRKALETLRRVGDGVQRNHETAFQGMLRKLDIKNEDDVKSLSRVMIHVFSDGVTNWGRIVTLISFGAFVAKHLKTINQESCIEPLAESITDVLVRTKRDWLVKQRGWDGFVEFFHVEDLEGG

A further experiment addresses T2, Bfl-1, Q16548.
T2 chain: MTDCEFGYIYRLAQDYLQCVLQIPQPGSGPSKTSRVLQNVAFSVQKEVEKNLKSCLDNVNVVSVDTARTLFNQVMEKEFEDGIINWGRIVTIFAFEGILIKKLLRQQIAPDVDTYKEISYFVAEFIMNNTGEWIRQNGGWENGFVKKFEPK

In a further experiment the target is Bcl-xL, Q07817.
Chain of Bcl-xL, Q07817 (Q07817 1-209): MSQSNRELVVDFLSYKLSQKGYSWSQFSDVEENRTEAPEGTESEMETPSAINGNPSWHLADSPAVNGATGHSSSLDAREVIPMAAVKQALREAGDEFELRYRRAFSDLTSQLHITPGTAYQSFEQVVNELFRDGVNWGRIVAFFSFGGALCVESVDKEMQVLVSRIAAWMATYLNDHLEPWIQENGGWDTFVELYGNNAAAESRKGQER

B1: XXXX (peptide)
chain: GTAVAYRGAHLRGRLRAVYNTFRAAP
Regarding B1, the SPOT signal as a fraction of Bim BH3's signal on the same receptor and array with Mcl-1, Q07820 stood at 1.44; in the experiment with Bfl-1, Q16548 it was 1.48; with Bcl-xL, Q07817 it was 2.49.

B2: CHMP5 (peptide)
chain: ELDEDDLEAEDDALGDELLADEDSSY
Consider B2, for which the SPOT signal as a fraction of Bim BH3's signal on the same receptor and array turned out to be 0.03 with Mcl-1, Q07820; 0.03 with Bfl-1, Q16548; 0.06 with Bcl-xL, Q07817.

B3: SLC38A8 (peptide)
chain: LNLLMISVAFLRVILDQLEKLCDSLL
Regarding B3, the SPOT signal as a fraction of Bim BH3's signal on the same receptor and array came out at 0.04 in the experiment with Mcl-1, Q07820; 0.05 with Bfl-1, Q16548; 0.07 with Bcl-xL, Q07817.

B4: DSN1 (peptide)
chain: RAKASSLSEELKHFLDGLETDGTLQK
Consider B4, for which the SPOT signal as a fraction of Bim BH3's signal on the same receptor and array was 0.18 in the experiment with Mcl-1, Q07820; 0.17 with Bfl-1, Q16548; 0.26 in the experiment with Bcl-xL, Q07817.

B5: FUT8 (peptide)
chain: KKLKNLEGNEDQRHADEFLLDLGHHE
Regarding B5, the SPOT signal as a fraction of Bim BH3's signal on the same receptor and array with Mcl-1, Q07820 came out at 0.04; with Bfl-1, Q16548 it was 0.04; in the experiment with Bcl-xL, Q07817, 0.07.

B6: BAD (peptide)
chain: LWAAQRYGREDRRMSDEFVDSFKKGL
B6: the SPOT signal as a fraction of Bim BH3's signal on the same receptor and array with Mcl-1, Q07820 is 0.51; with Bfl-1, Q16548 it was 0.3; in the experiment with Bcl-xL, Q07817, 0.53.

B7: FTL (peptide)
chain: THFLDEEVKLDKKMGDHLTNLHRLGG
Consider B7, for which the SPOT signal as a fraction of Bim BH3's signal on the same receptor and array amounted to 0.05 with Mcl-1, Q07820; 0.03 with Bfl-1, Q16548; 0.07 in the experiment with Bcl-xL, Q07817.

B8: ITGA7 (peptide)
chain: GSPDSMFGISDAVLGDLNQDGFPDIA
Take B8: the SPOT signal as a fraction of Bim BH3's signal on the same receptor and array with Mcl-1, Q07820 was 0.03; in the experiment with Bfl-1, Q16548, 0.08; with Bcl-xL, Q07817, 0.07.

B9: XXXX (peptide)
chain: TAAAAYRGAHDRGRGRTVYNTFRAAA
As to B9, the SPOT signal as a fraction of Bim BH3's signal on the same receptor and array in the experiment with Mcl-1, Q07820 was determined as 1.43; with Bfl-1, Q16548, 1.4; with Bcl-xL, Q07817 it was 2.54.

B10: PRDX4 (peptide)
chain: LDFTFVCPTEIIAFLDRLEEFRSINT
For B10, the SPOT signal as a fraction of Bim BH3's signal on the same receptor and array was determined as 0.05 with Mcl-1, Q07820; 0.04 with Bfl-1, Q16548; 0.05 in the experiment with Bcl-xL, Q07817.

B11: SLC30A7 (peptide)
chain: ELLYGIWSNCDGLISDSFHMFFDSTA
For B11, the SPOT signal as a fraction of Bim BH3's signal on the same receptor and array with Mcl-1, Q07820 was found to be 0.05; in the experiment with Bfl-1, Q16548, 0.05; in the experiment with Bcl-xL, Q07817, 0.06.

B12: USP40 (peptide)
chain: MSLFLRVVFSFTMFLDLFEEEYSTVS
Regarding B12, the SPOT signal as a fraction of Bim BH3's signal on the same receptor and array with Mcl-1, Q07820 is 0.06; in the experiment with Bfl-1, Q16548 it was 0.04; in the experiment with Bcl-xL, Q07817 it was 0.06.

B13: PCNXL2 (peptide)
chain: LLDFFMVSILDSKLGDLLHKLQFVLT
Take B13: the SPOT signal as a fraction of Bim BH3's signal on the same receptor and array is 0.06 with Mcl-1, Q07820; 0.04 with Bfl-1, Q16548; 0.09 in the experiment with Bcl-xL, Q07817.

B14: TAP1 (peptide)
chain: MSILTIASAVDEFVGDGIYNNTMGHV
As for B14, the SPOT signal as a fraction of Bim BH3's signal on the same receptor and array in the experiment with Mcl-1, Q07820 was determined as 0.04; in the experiment with Bfl-1, Q16548, 0.03; with Bcl-xL, Q07817, 0.06.

B15: ST14 (peptide)
chain: FTCKNKFCKPLFWVLDSVNDCGDNSD
For B15, the SPOT signal as a fraction of Bim BH3's signal on the same receptor and array in the experiment with Mcl-1, Q07820 worked out at 0.27; with Bfl-1, Q16548, 0.12; with Bcl-xL, Q07817, 0.23.

B16: HEXDC (peptide)
chain: VLELHPGAQRLHIGLDEVYYLGEGEA
For B16, the SPOT signal as a fraction of Bim BH3's signal on the same receptor and array was 0.05 with Mcl-1, Q07820; 0.04 with Bfl-1, Q16548; 0.06 with Bcl-xL, Q07817.

B17: IQGAP2 (peptide)
chain: ISSLDLLPYGLRYILKVLKNSIHEKF
Turning to B17, the SPOT signal as a fraction of Bim BH3's signal on the same receptor and array in the experiment with Mcl-1, Q07820 was 0.66; with Bfl-1, Q16548 it was 0.6; with Bcl-xL, Q07817, 0.86.

B18: CYP2A6 (peptide)
chain: MPYMEAVIHEDQRFGDVIPMSLARRV
On to B18, for which the SPOT signal as a fraction of Bim BH3's signal on the same receptor and array with Mcl-1, Q07820 came to 0.07; in the experiment with Bfl-1, Q16548, 0.04; in the experiment with Bcl-xL, Q07817 it was 0.07.

B19: BAK1 (peptide)
chain: SSTMGQVGRQDAIIGDDINRRYDSEF
Consider B19, for which the SPOT signal as a fraction of Bim BH3's signal on the same receptor and array is 0.01 with Mcl-1, Q07820; 0.01 with Bfl-1, Q16548; 0.02 with Bcl-xL, Q07817.

B20: MKI67 (peptide)
chain: SGLPGLSSVDINNFLDSINESEGIPL
On to B20, for which the SPOT signal as a fraction of Bim BH3's signal on the same receptor and array turned out to be 0.04 with Mcl-1, Q07820; 0.04 with Bfl-1, Q16548; 0.11 in the experiment with Bcl-xL, Q07817.

B21: WDR60 (peptide)
chain: GGRVKLVHSADIQLGDSLSHKGNEFW
As to B21, the SPOT signal as a fraction of Bim BH3's signal on the same receptor and array with Mcl-1, Q07820 came out at 0.23; with Bfl-1, Q16548, 0.24; with Bcl-xL, Q07817, 0.2.

B22: TMEM184C (peptide)
chain: SDIRDDISEQVRHVLRTVRGHPRKKL
For the molecule B22, the SPOT signal as a fraction of Bim BH3's signal on the same receptor and array with Mcl-1, Q07820 is 0.31; with Bfl-1, Q16548, 0.34; with Bcl-xL, Q07817, 0.88.

B23: MKI67 (peptide)
chain: SGLPGLSSVDDNNFGDSINESEGIPL
Regarding B23, the SPOT signal as a fraction of Bim BH3's signal on the same receptor and array with Mcl-1, Q07820 stood at 0.03; with Bfl-1, Q16548, 0.04; with Bcl-xL, Q07817, 0.08.

B24: UBA6 (peptide)
chain: ADVHGIWSRLDCDFGDEFEVLDTTGE
Consider B24, for which the SPOT signal as a fraction of Bim BH3's signal on the same receptor and array amounted to 0.04 with Mcl-1, Q07820; 0.03 with Bfl-1, Q16548; 0.06 in the experiment with Bcl-xL, Q07817.

B25: WDR60 (peptide)
chain: GGRVKLVHSALIQLLDSLSHKGNEFW
Take B25: the SPOT signal as a fraction of Bim BH3's signal on the same receptor and array stood at 0.23 in the experiment with Mcl-1, Q07820; 0.23 in the experiment with Bfl-1, Q16548; 0.28 with Bcl-xL, Q07817.

B26: DYNC1H1 (peptide)
chain: VLAPVQLGKWLVLFLDEINLPDMDKY
Regarding B26, the SPOT signal as a fraction of Bim BH3's signal on the same receptor and array in the experiment with Mcl-1, Q07820 came to 0.08; with Bfl-1, Q16548, 0.07; with Bcl-xL, Q07817, 0.08.

B27: SYNE1 (peptide)
chain: VTLLSEVEKMDSNFGDCVQYKEIVKN
As to B27, the SPOT signal as a fraction of Bim BH3's signal on the same receptor and array with Mcl-1, Q07820 was determined as 0.05; with Bfl-1, Q16548, 0.05; with Bcl-xL, Q07817, 0.09.

B28: CTSL2 (peptide)
chain: SQGKHGFTMAMNAFLDMTNEEFRQMM
With B28, the SPOT signal as a fraction of Bim BH3's signal on the same receptor and array with Mcl-1, Q07820 worked out at 0.11; with Bfl-1, Q16548, 0.06; in the experiment with Bcl-xL, Q07817 it was 0.07.

The values above are taken from PMC4072508, “Genome-Wide Prediction and Validation of Peptides That Bind Human Prosurvival Bcl-2 Proteins” (PLoS Computational Biology, 2014).
